Drawing on publication doi:10.1101/2021.05.05.442822, this text covers Kd for one molecule.

The test has as its target H3K9me0 peptide. Kind of test: FP. The conditions noted are these: enzyme; modification not given.

As usually defined, the Kd is the free concentration of one partner at which half of the binding sites on the other are occupied at equilibrium, for simple one-to-one binding. Read a low Kd as a tighter complex.

B1: Full-length human G9a with an N-terminal MBP tag (MBP:FL-G9a), Q96KQ7 1-1210 (protein)
chain: AAAAGAAAAAAAEGEAPAEMGALLLEKETRGATERVHGSLGDTPRSEETLPKATPDSLEPAGPSSPASVTVTVGDEGADTPVGATPLIGDESENLEGDGDLRGGRILLGHATKSFPSSPSKGGSCPSRAKMSMTGAGKSPPSVQSLAMRLLSMPGAQGAAAAGSEPPPATTSPEGQPKVHRARKTMSKPGNGQPPVPEKRPPEIQHFRMSDDVHSLGKVTSDLAKRRKLNSGGGLSEELGSARRSGEVTLTKGDPGSLEEWETVVGDDFSLYYDSYSVDERVDSDSKSEVEALTEQLSEEEEEEEEEEEEEEEEEEEEEEEEDEESGNQSDRSGSSGRRKAKKKWRKDSPWVKPSRKRRKREPPRAKEPRGVNGVGSSGPSEYMEVPLGSLELPSEGTLSPNHAGVSNDTSSLETERGFEELPLCSCRMEAPKIDRISERAGHKCMATESVDGELSGCNAAILKRETMRPSSRVALMVLCETHRARMVKHHCCPGCGYFCTAGTFLECHPDFRVAHRFHKACVSQLNGMVFCPHCGEDASEAQEVTIPRGDGVTPPAGTAAPAPPPLSQDVPGRADTSQPSARMRGHGEPRRPPCDPLADTIDSSGPSLTLPNGGCLSAVGLPLGPGREALEKALVIQESERRKKLRFHPRQLYLSVKQGELQKVILMLLDNLDPNFQSDQQSKRTPLHAAAQKGSVEICHVLLQAGANINAVDKQQRTPLMEAVVNNHLEVARYMVQRGGCVYSKEEDGSTCLHHAAKIGNLEMVSLLLSTGQVDVNAQDSGGWTPIIWAAEHKHIEVIRMLLTRGADVTLTDNEENICLHWASFTGSAAIAEVLLNARCDLHAVNYHGDTPLHIAARESYHDCVLLFLSRGANPELRNKEGDTAWDLTPERSDVWFALQLNRKLRLGVGNRAIRTEKIICRDVARGYENVPIPCVNGVDGEPCPEDYKYISENCETSTMNIDRNITHLQHCTCVDDCSSSNCLCGQLSIRCWYDKDGRLLQEFNKIEPPLIFECNQACSCWRNCKNRVVQSGIKVRLQLYRTAKMGWGVRALQTIPQGTFICEYVGELISDAEADVREDDSYLFDLDNKDGEVYCIDARYYGNISRFINHLCDPNIIPVRVFMLHQDLRFPRIAFFSSRDIRTGEELGFDYGDRFWDIKSKYFTCQCGSEKCKHSAEAIALEQSRLARLDPHPELLPELGSLPPVNT
B1 registered a Kd of 66 µM. This counts as double-digit micromolar.
